Target: Hsp90 (Saccharomyces cerevisiae, UniProt P02829)
Assay: ITC

Chain of Hsp90 (P02829 whole entry): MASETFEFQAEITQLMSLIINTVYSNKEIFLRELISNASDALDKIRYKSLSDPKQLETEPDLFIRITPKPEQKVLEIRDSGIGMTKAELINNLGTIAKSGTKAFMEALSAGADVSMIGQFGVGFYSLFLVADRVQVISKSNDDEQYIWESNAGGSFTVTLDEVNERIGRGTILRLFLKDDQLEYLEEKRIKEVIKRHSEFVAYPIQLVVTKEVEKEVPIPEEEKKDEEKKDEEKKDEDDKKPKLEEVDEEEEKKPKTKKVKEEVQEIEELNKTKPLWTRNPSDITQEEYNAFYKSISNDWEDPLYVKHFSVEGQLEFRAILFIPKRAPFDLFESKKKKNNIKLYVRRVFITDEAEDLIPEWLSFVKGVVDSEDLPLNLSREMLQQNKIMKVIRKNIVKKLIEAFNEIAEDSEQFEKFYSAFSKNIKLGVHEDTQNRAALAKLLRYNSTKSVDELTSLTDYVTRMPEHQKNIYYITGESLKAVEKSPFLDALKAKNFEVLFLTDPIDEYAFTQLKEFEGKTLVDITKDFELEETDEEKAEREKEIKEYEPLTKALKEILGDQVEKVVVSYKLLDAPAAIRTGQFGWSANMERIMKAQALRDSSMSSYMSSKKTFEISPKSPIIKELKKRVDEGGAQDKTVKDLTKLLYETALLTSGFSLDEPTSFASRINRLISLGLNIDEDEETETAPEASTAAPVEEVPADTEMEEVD

- Kd: 320 nM
B1: Sti1 (protein)
chain: MSLTADEYKQQGNAAFTAKDYDKAIELFTKAIEVSETPNHVLYSNRSACYTSLKKFSDALNDANECVKINPSWSKGYNRLGAAHLGLGDLDEAESNYKKALELDASNKAAKEGLDQVHRTQQARQAQPDLGLTQLFADPNLIENLKKNPKTSEMMKDPQLVAKLIGYKQNPQAIGQDLFTDPRLMTIMATLMGVDLNMDDINQSNSMPKEPETSKSTEQKKDAEPQSDSTTSKENSSKAPQKEESKESEPMEVDEDDSKIEADKEKAEGNKFYKARQFDEAIEHYNKAWELHKDITYLNNRAAAEYEKGEYETAISTLNDAVEQGREMRADYKVISKSFARIGNAYHKLGDLKKTIEYYQKSLTEHRTADILTKLRNAEKELKKAEAEAYVNPEKAEEARLEGKEYFTKSDWPNAVKAYTEMIKRAPEDARGYSNRAAALAKLMSFPEAIADCNKAIEKDPNFVRAYIRKATAQIAVKEYASALETLDAARTKDAEVNNGSSAREIDQLYYKASQQRFQPGTSNETPEETYQRAMKDPEVAAIMQDPVMQSILQQAQQNPAALQEHMKNPEVFKKIQTLIAAGIIRTGR
modifications: Hsp90 in complex with LA1011 (1 mM)

Reference: article PMC6000670 (2018)
